In the Human Domainome abundance scans (Beltran et al. 2025):
± gives the uncertainty stated by the source.

B1: Storkhead-box protein 2, residues 64 to 141; numbered along this chain, Q9P2F5 (parent)
chain: SPISQSQFIPLGEILCLAISAMNSARKPVTQEALMEHLTTCFPGVPTPSQEILRHTLNTLVRERKIYPTPDGYFIVTP

Variants of: B1
Experiment: abundance fitness (aPCA) (normalised: wild type 0, dead -1); higher = more abundant; growth selection in yeast, the domain comes from the species named
Conditions: Homo sapiens

Which abundance fitness does the source give for T39M here?
Its abundance fitness is -0.117 ± 0.084.

Which abundance fitness does the source give for D71W here?
The abundance fitness was -0.189 ± 0.047.

Which abundance fitness does the source give for D71I here?
The abundance fitness was -0.313 ± 0.25.

With P46E as the variant, how does the abundance fitness read?
Its abundance fitness is -0.067 ± 0.039.

With P46Q as the variant, how does the abundance fitness read?
Its abundance fitness is -0.187 ± 0.06.

Which abundance fitness does the source give for P46S here?
The abundance fitness was -0.15 ± 0.045.

Which abundance fitness does the source give for P46C here?
The abundance fitness was -0.078 ± 0.067.

For P68D, which abundance fitness is on record?
Its abundance fitness is -0.042 ± 0.14.

With P68G as the variant, how does the abundance fitness read?
The abundance fitness was -0.003 ± 0.027.

With P68S as the variant, how does the abundance fitness read?
Its abundance fitness is 0.059 ± 0.049.

Which abundance fitness does the source give for P68R here?
Its abundance fitness is 0 ± 0.034.

With P68N as the variant, how does the abundance fitness read?
Its abundance fitness is 0.009 ± 0.15.

Which abundance fitness does the source give for I9D here?
The abundance fitness was -0.035 ± 0.1.

Which abundance fitness does the source give for I9C here?
Its abundance fitness is 0.067 ± 0.059.

For I9K, which abundance fitness is on record?
The abundance fitness was 0.044 ± 0.11.

For I9N, which abundance fitness is on record?
Its abundance fitness is 0.131 ± 0.1.

Which abundance fitness does the source give for I9G here?
The abundance fitness was 0.025 ± 0.036.

With Q5D as the variant, how does the abundance fitness read?
Its abundance fitness is -0.021 ± 0.079.

Which abundance fitness does the source give for Q5W here?
The abundance fitness was -0.276 ± 0.051.

Which abundance fitness does the source give for Q5P here?
The abundance fitness was -0.125 ± 0.055.

For Q5Y, which abundance fitness is on record?
Its abundance fitness is -0.055 ± 0.083.

With I75A as the variant, how does the abundance fitness read?
Its abundance fitness is -0.04 ± 0.057.

For I75M, which abundance fitness is on record?
Its abundance fitness is 0.1 ± 0.058.

Which abundance fitness does the source give for I75N here?
The abundance fitness was -0.177 ± 0.15.

Which abundance fitness does the source give for A33Q here?
Its abundance fitness is 0.009 ± 0.061.

For A33T, which abundance fitness is on record?
Its abundance fitness is -0.118 ± 0.062.

With A33I as the variant, how does the abundance fitness read?
The abundance fitness was -0.274 ± 0.087.

For R64C, which abundance fitness is on record?
The abundance fitness was -0.128 ± 0.068.

Which abundance fitness does the source give for R64V here?
The abundance fitness was -0.22 ± 0.049.

With R64Y as the variant, how does the abundance fitness read?
Its abundance fitness is -0.174 ± 0.17.

For R64W, which abundance fitness is on record?
The abundance fitness was -0.211 ± 0.041.

Which abundance fitness does the source give for R64D here?
The abundance fitness was -0.029 ± 0.09.

For T30Q, which abundance fitness is on record?
Its abundance fitness is 0.01 ± 0.067.

For T30N, which abundance fitness is on record?
Its abundance fitness is -0.352 ± 0.12.

Which abundance fitness does the source give for T30D here?
The abundance fitness was -0.067 ± 0.07.

For T30M, which abundance fitness is on record?
Its abundance fitness is -0.102 ± 0.068.

With T30P as the variant, how does the abundance fitness read?
Its abundance fitness is -0.486 ± 0.058.

With T30R as the variant, how does the abundance fitness read?
The abundance fitness was -0.095 ± 0.035.

For L38Y, which abundance fitness is on record?
Its abundance fitness is -0.391 ± 0.13.

With I19P as the variant, how does the abundance fitness read?
Its abundance fitness is -0.948 ± 0.12.

With I19F as the variant, how does the abundance fitness read?
Its abundance fitness is -0.317 ± 0.15.

For G44Y, which abundance fitness is on record?
The abundance fitness was -0.036 ± 0.12.

Which abundance fitness does the source give for G44P here?
The abundance fitness was -0.063 ± 0.053.

For G44T, which abundance fitness is on record?
The abundance fitness was -0.037 ± 0.054.

With G44R as the variant, how does the abundance fitness read?
Its abundance fitness is 0.117 ± 0.032.

Which abundance fitness does the source give for G44M here?
Its abundance fitness is -0.024 ± 0.055.

For G44Q, which abundance fitness is on record?
The abundance fitness was -0.055 ± 0.068.

For G44L, which abundance fitness is on record?
Its abundance fitness is -0.091 ± 0.034.

With Q50I as the variant, how does the abundance fitness read?
Its abundance fitness is 0.047 ± 0.12.

With Q50D as the variant, how does the abundance fitness read?
Its abundance fitness is 0.118 ± 0.15.

With Q50V as the variant, how does the abundance fitness read?
The abundance fitness was -0.131 ± 0.059.

Which abundance fitness does the source give for Q50N here?
Its abundance fitness is -0.08 ± 0.16.

Which abundance fitness does the source give for Q50W here?
Its abundance fitness is -0.082 ± 0.067.

With Q50M as the variant, how does the abundance fitness read?
The abundance fitness was 0.036 ± 0.083.

With Q50C as the variant, how does the abundance fitness read?
Its abundance fitness is -0.076 ± 0.1.

With M35C as the variant, how does the abundance fitness read?
The abundance fitness was -0.038 ± 0.091.

For M35F, which abundance fitness is on record?
Its abundance fitness is 0.04 ± 0.071.

Which abundance fitness does the source give for M35Q here?
Its abundance fitness is -0.063 ± 0.092.

Which abundance fitness does the source give for M35A here?
The abundance fitness was 0.02 ± 0.071.

Which abundance fitness does the source give for L60F here?
The abundance fitness was -0.401 ± 0.068.

Which abundance fitness does the source give for L60G here?
Its abundance fitness is -0.706 ± 0.057.

With L60V as the variant, how does the abundance fitness read?
The abundance fitness was -0.587 ± 0.052.

Which abundance fitness does the source give for L60C here?
Its abundance fitness is -0.107 ± 0.076.

With L60T as the variant, how does the abundance fitness read?
The abundance fitness was -0.87 ± 0.075.

Which abundance fitness does the source give for L60A here?
Its abundance fitness is -0.213 ± 0.044.

Which abundance fitness does the source give for E51R here?
Its abundance fitness is -0.231 ± 0.049.

With E51C as the variant, how does the abundance fitness read?
Its abundance fitness is -0.104 ± 0.077.

Which abundance fitness does the source give for E51W here?
The abundance fitness was -0.145 ± 0.062.

For E51H, which abundance fitness is on record?
The abundance fitness was 0.027 ± 0.18.

With E51V as the variant, how does the abundance fitness read?
The abundance fitness was -0.145 ± 0.051.

With E51M as the variant, how does the abundance fitness read?
The abundance fitness was -0.203 ± 0.099.

With E51P as the variant, how does the abundance fitness read?
Its abundance fitness is 0.009 ± 0.052.

With L57C as the variant, how does the abundance fitness read?
The abundance fitness was -0.202 ± 0.083.

Which abundance fitness does the source give for L57P here?
The abundance fitness was -1.22 ± 0.14.

For L57G, which abundance fitness is on record?
The abundance fitness was -1.01 ± 0.082.

For V45A, which abundance fitness is on record?
The abundance fitness was -0.088 ± 0.043.

With V45D as the variant, how does the abundance fitness read?
Its abundance fitness is -0.207 ± 0.091.

With V45M as the variant, how does the abundance fitness read?
Its abundance fitness is -0.109 ± 0.06.

For V45H, which abundance fitness is on record?
The abundance fitness was 0.078 ± 0.12.

With Q7H as the variant, how does the abundance fitness read?
The abundance fitness was -0.122 ± 0.085.

Which abundance fitness does the source give for Q7C here?
Its abundance fitness is -0.154 ± 0.1.

With Q7T as the variant, how does the abundance fitness read?
Its abundance fitness is -0.02 ± 0.072.

Which abundance fitness does the source give for Q7P here?
The abundance fitness was -0.021 ± 0.045.
